{"source": "patent US20240025993A1", "about": "“CD19 BINDING MOLECULES AND USES THEREOF” (NOVARTIS AG, priority 2020, published 2024)", "molecules": {"B1": {"name": "CD3hi TSP1C: TBM corresponding to CD3hi TSP1 but with a lysozyme binding arm in place of the CD19 binding arm; control antibody (antibody)", "heavy": "QVQLQQSGPGLVKPSQTLSLTCAISGDSVSSNSAAWSWIRQSPGRGLEWLGRIYYRSKWYNDYAVSVKSRITINPDTSKNQFSLQLNSVTPEDTAVYYCARLDHRYHEDTVYPGMDVWGQGTLVTVSSASTKGPSVFPLAPSSKSTSGGTAALGCLVKDYFPEPVTVSWNSGALTSGVHTFPAVLQSSGLYSLSSVVTVPSSSLGTQTYICNVNHKPSNTKVDKRVEPKSCGGGGSGGGGSEVQLVESGGGLVQPGGSLKLSCAASGFTFNTYAMNWVRQASGKGLEWVGRIRSKYNNYATYYADSVKDRFTISRDDSKSTLYLQMNSLKTEDTAVYYCVRHGNFGNSYVSWFAYWGQGTLVTVSSGGGGSGGGGSGGGGSGGGGSQAVVTQEPSLTVSPGGTVTLTCRSSTGAVTTSNYANWVQQKPGQAPRGLIGGTNKRAPWTPARFSGSLLGDKAALTLSGAQPEDEAEYFCALWYSNLWVFGGGTKLTVLGGGGSDKTHTCPPCPAPELLGGPSVFLFPPKPKDTLMISRTPEVTCVVVAVSHEDPEVKFNWYVDGVEVHNAKTKPREEQYASTYRVVSVLTVLHQDWLNGKEYKCKVSNKALAAPIEKTISKAKGQPREPQVCTLPPSREEMTKNQVSLSCAVKGFYPSDIAVEWESNGQPENNYKTTPPVLDSDGSFFLVSKLTVDKSRWQQGNVFSCSVMHEALHNHYTQKSLSLSPGK", "light": "DIELTQPPSVSVAPGQTARISCSGDNLPAYTVTWYQQKPGQAPVLVIYDDSDRPSGIPERFSGSNSGNTATLTISGTQAEDEADYYCASWDPSSGVVFGGGTKLTVLGQPKAAPSVTLFPPSSEELQANKATLVCLISDFYPGAVTVAWKADSSPVKAGVETTTPSKQSNNKYAASSYLSLTPEQWKSHRSYSCQVTHEGSTVEKTVAPTECS", "chain": "SQQIYGVVYGNVTFHVPSNVPLKEVLWKKQKDKVAELENSEFRAFSSFKNRVYLDTVSGSLTIYNLTSSDEDEYEMESPNITDTMKFFLYVLESGGGGSDKTHTCPPCPAPELLGGPSVFLFPPKPKDTLMISRTPEVTCVVVAVSHEDPEVKFNWYVDGVEVHNAKTKPREEQYASTYRVVSVLTVLHQDWLNGKEYKCKVSNKALAAPIEKTISKAKGQPREPQVYTLPPCREEMTKNQVSLWCLVKGFYPSDIAVEWESNGQPENNYKTTPPVLDSDGSFFLYSKLTVDKSRWQQGNVFSCSVMHEALHNHYTQKSLSLSPGK"}}, "tested_on": "T cells co-cultured with OCI-LY-19, Karpas422 or Toledo target cells", "assay": "TBM and BBM mediated T cell proliferation (Example 20)", "assay_type": "cell-based, human", "conditions": "OCI-LY-19, Karpas422, Toledo co-culture; E:T 1:3, 96 hrs, 2.5 nM-0.0006 nM; H variants", "experimental": "Briefly, OCI-LY-19, Karpas422, and Toledo target cells stably expressing firefly luciferase were plated in a 96 well plate in T Cell Media (TCM) (RPMI-1640, ThermoFisher Scientific, Cat #11875-085), 10% FBS (Seradigm, Cat #1500-500), 1% L-Glutamine (Thermo Fisher Scientific, Cat #25830-081), 1% Non Essential Amino Acids (Thermo Fisher Scientific, Cat #11140-050),1% Pen/Strep (Thermo Fisher Scientific, Cat #15070063), 1% HEPES (Thermo Fisher Scientific, Cat #15630080), Sodium Pyruvate (Thermo Fisher Scientific, Cat #11360-070), 0.1% Beta-mercaptoethanol (Thermo Fisher Scientific, Cat #21985-023)]. PBMCs previously isolated and cryopreserved from 2 Leukopak donors were thawed and Pan T cells were isolated (as described earlier). Isolated T cells were labelled with 5 μM Cell Trace Violet (CTV) (Thermo Fisher Scientific, Cat #C34557) following the manufacturer's protocol and were co-cultured with target cells at an E:T ratio of 1:3. A dilution series of CD3med TSP1, CD3hi TSP1, CD3hi BSP1, CD3hi TSP1C, and blinatumomab ranging from 2.5 nM-0.0006 nM was added to cells and the plates were incubated in a 5% CO2, 37° C. incubator for 96 hrs. […]", "data": [{"molecule": "B1", "values": [{"measurement": "T cell proliferation (% proliferated CD3+ T cells)", "result": "did not induce any T cell proliferation"}]}]}
